Assay results from the supplement of paper PMC9112550, “Optimization of the antimicrobial peptide Bac7 by deep mutational scanning” (BMC Biology, 2022).

System: Escherichia coli TOP10
Test: shrunken log2 fold change of peptide-encoding DNA abundance (4.5 h post-induction vs induction); higher = less antimicrobial activity (less host growth inhibition)
Details: time post-induction: 4.5 h; library: site-saturation at positions 5, 18, 19, 20
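Further: peptides expressed intracellularly from a pBAD plasmid library in pooled LB shake-flask culture, induced with 0.3% L-arabinose, DNA abundance read by NGS, three biological replicates, DESeq2 with apeglm shrinkage.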

| Sequence | shrunken log2 fold change |
| --- | --- |
| RRIRNRPPRLPRPRPRPPAYPRP | 0.0856 |
| RRIRVRPPRLPRPRPRPRSMPRP | -0.123 |
| RRIRMRPPRLPRPRPRPPRKPRP | 1.49 |
| RRIRPRPPRLPRPRPRPRHQPRP | 0.31 |
| RRIRRRPPRLPRPRPRPIQGPRP | -0.00136 |
| RRIRMRPPRLPRPRPRPNDPPRP | -0.516 |
| RRIRNRPPRLPRPRPRPAWLPRP | 0.276 |
| RRIRIRPPRLPRPRPRPTIFPRP | -0.398 |
| RRIRWRPPRLPRPRPRPWTNPRP | 0.0442 |
| RRIRRRPPRLPRPRPRPHEQPRP | 0.0519 |
| RRIRCRPPRLPRPRPRPRWYPRP | -0.134 |
| RRIRHRPPRLPRPRPRPLCVPRP | 2.97 |
| RRIRGRPPRLPRPRPRPLPRPRP | 1.5 |
| RRIRWRPPRLPRPRPRPTCQPRP | 0.729 |
| RRIRWRPPRLPRPRPRPWYSPRP | -0.534 |
| RRIRTRPPRLPRPRPRPPKWPRP | 0.181 |
| RRIRTRPPRLPRPRPRPMVQPRP | 0.0197 |
| RRIRPRPPRLPRPRPRPCKKPRP | -0.0659 |
| RRIRQRPPRLPRPRPRPMNGPRP | -0.0825 |
| RRIRTRPPRLPRPRPRPTDMPRP | -0.0264 |
| RRIRQRPPRLPRPRPRPTYDPRP | -0.338 |
| RRIRYRPPRLPRPRPRPRKWPRP | 0.149 |
| RRIRHRPPRLPRPRPRPNICPRP | -0.925 |
| RRIRRRPPRLPRPRPRPMMAPRP | 0.142 |
| RRIRKRPPRLPRPRPRPWTQPRP | 0.0628 |

| Sequence | shrunken log2 fold change |
| --- | --- |
| RRIRWRPPRLPRPRPRPVPAPRP | 0.532 |
| RRIRHRPPRLPRPRPRPVPMPRP | 0.0504 |
| RRIRSRPPRLPRPRPRPSGAPRP | 0.12 |
| RRIRCRPPRLPRPRPRPAIMPRP | -0.0676 |
| RRIRRRPPRLPRPRPRPSQCPRP | 0.0735 |
| RRIRCRPPRLPRPRPRPTYGPRP | -0.0844 |
| RRIRHRPPRLPRPRPRPFVYPRP | -0.186 |
| RRIRERPPRLPRPRPRPALPPRP | 0.439 |
| RRIRRRPPRLPRPRPRPWGLPRP | -0.222 |
| RRIRGRPPRLPRPRPRPQAEPRP | 1.08 |
| RRIRQRPPRLPRPRPRPCSDPRP | -0.136 |
| RRIRPRPPRLPRPRPRPSNKPRP | -0.56 |
| RRIRHRPPRLPRPRPRPNNYPRP | -0.857 |
| RRIRFRPPRLPRPRPRPMERPRP | -0.208 |
| RRIRQRPPRLPRPRPRPNEGPRP | -0.07 |
| RRIRERPPRLPRPRPRPVCVPRP | -0.0194 |
| RRIRGRPPRLPRPRPRPWGQPRP | 0.204 |
| RRIRYRPPRLPRPRPRPTQVPRP | 0.188 |
| RRIRIRPPRLPRPRPRPMFWPRP | -0.128 |
| RRIRGRPPRLPRPRPRPAEVPRP | 0.31 |
| RRIRCRPPRLPRPRPRPTIRPRP | -0.312 |
| RRIRWRPPRLPRPRPRPYWLPRP | -0.0807 |
| RRIRGRPPRLPRPRPRPCNTPRP | 0.00375 |
| RRIRSRPPRLPRPRPRPVICPRP | -0.0365 |
| RRIRPRPPRLPRPRPRPCFTPRP | -0.307 |

| Sequence | shrunken log2 fold change |
| --- | --- |
| RRIRERPPRLPRPRPRPMSDPRP | -0.235 |
| RRIRCRPPRLPRPRPRPWMTPRP | -0.188 |
| RRIRKRPPRLPRPRPRPMLEPRP | 0.621 |
| RRIRVRPPRLPRPRPRPQPLPRP | -0.109 |
| RRIRFRPPRLPRPRPRPFFIPRP | -0.429 |
| RRIRLRPPRLPRPRPRPRNIPRP | -0.424 |
| RRIRQRPPRLPRPRPRPWNEPRP | -0.139 |
| RRIRRRPPRLPRPRPRPCCNPRP | -0.029 |
| RRIRYRPPRLPRPRPRPSIAPRP | -0.216 |
| RRIRRRPPRLPRPRPRPGHGPRP | 1.04 |
| RRIRERPPRLPRPRPRPALKPRP | 0.4 |
| RRIRTRPPRLPRPRPRPEWCPRP | 0.272 |
| RRIRKRPPRLPRPRPRPGEKPRP | 0.015 |
| RRIRWRPPRLPRPRPRPQWVPRP | 0.0902 |
| RRIRGRPPRLPRPRPRPDVIPRP | 0.68 |
| RRIRSRPPRLPRPRPRPEFDPRP | 0.202 |
| RRIRHRPPRLPRPRPRPPNFPRP | -0.00427 |
| RRIRYRPPRLPRPRPRPMMHPRP | -0.626 |
| RRIRKRPPRLPRPRPRPACCPRP | 0.192 |
| RRIRTRPPRLPRPRPRPCQDPRP | -0.13 |
| RRIRERPPRLPRPRPRPRIVPRP | -0.0184 |
| RRIRWRPPRLPRPRPRPSDFPRP | 0.0215 |
| RRIRNRPPRLPRPRPRPVVFPRP | -0.0743 |
| RRIRLRPPRLPRPRPRPSQDPRP | -0.282 |
| RRIRARPPRLPRPRPRPINCPRP | -0.0513 |

| Sequence | shrunken log2 fold change |
| --- | --- |
| RRIRHRPPRLPRPRPRPVFPPRP | 0.171 |
| RRIRHRPPRLPRPRPRPLAEPRP | 0.243 |
| RRIRLRPPRLPRPRPRPMCQPRP | 0.0751 |
| RRIRQRPPRLPRPRPRPGLYPRP | 0.224 |
| RRIRFRPPRLPRPRPRPICMPRP | -0.214 |
| RRIRPRPPRLPRPRPRPYPFPRP | -0.0133 |
| RRIRLRPPRLPRPRPRPFFHPRP | -0.37 |
| RRIRARPPRLPRPRPRPRWCPRP | 0.0438 |
| RRIRARPPRLPRPRPRPDLDPRP | 0.515 |
| RRIRGRPPRLPRPRPRPVVNPRP | 0.0184 |
| RRIRMRPPRLPRPRPRPCMHPRP | 0.14 |
| RRIRPRPPRLPRPRPRPYFGPRP | -0.522 |
| RRIRQRPPRLPRPRPRPLVEPRP | -0.0628 |
| RRIRNRPPRLPRPRPRPTWDPRP | -0.0897 |
| RRIRQRPPRLPRPRPRPWFLPRP | -0.0618 |
| RRIRLRPPRLPRPRPRPPQDPRP | 0.348 |
| RRIRARPPRLPRPRPRPVNLPRP | 0.0654 |
| RRIRSRPPRLPRPRPRPHREPRP | -0.14 |
| RRIRVRPPRLPRPRPRPMQNPRP | 0.111 |
| RRIRYRPPRLPRPRPRPYIKPRP | -1.3 |
| RRIRMRPPRLPRPRPRPDDGPRP | 0.038 |
| RRIRERPPRLPRPRPRPVPRPRP | 0.151 |
| RRIRMRPPRLPRPRPRPGFYPRP | 0.0157 |
| RRIRCRPPRLPRPRPRPECAPRP | 0.543 |
| RRIRERPPRLPRPRPRPPLKPRP | 0.322 |

| Sequence | shrunken log2 fold change |
| --- | --- |
| RRIRYRPPRLPRPRPRPNNGPRP | -0.156 |
| RRIRHRPPRLPRPRPRPKRNPRP | 0.0354 |
| RRIRGRPPRLPRPRPRPTSMPRP | 0.643 |
| RRIRLRPPRLPRPRPRPRTLPRP | -0.166 |
| RRIRNRPPRLPRPRPRPETHPRP | -0.0861 |
| RRIRGRPPRLPRPRPRPGYSPRP | 2.2 |
| RRIRFRPPRLPRPRPRPLFYPRP | -0.0429 |
| RRIRWRPPRLPRPRPRPDYVPRP | -0.208 |
| RRIRARPPRLPRPRPRPGKKPRP | -0.133 |
| RRIRKRPPRLPRPRPRPNCLPRP | -0.0339 |
| RRIRGRPPRLPRPRPRPIDQPRP | 0.436 |
| RRIRERPPRLPRPRPRPYFGPRP | -0.673 |
| RRIRYRPPRLPRPRPRPIHYPRP | -0.655 |
| RRIRKRPPRLPRPRPRPCEPPRP | 0.553 |
| RRIRHRPPRLPRPRPRPIEEPRP | -0.127 |
| RRIRHRPPRLPRPRPRPFFIPRP | -0.393 |
| RRIRWRPPRLPRPRPRPIPCPRP | -0.0198 |
| RRIRSRPPRLPRPRPRPVKGPRP | -0.0577 |
| RRIRMRPPRLPRPRPRPFLLPRP | -0.227 |
| RRIRQRPPRLPRPRPRPCEEPRP | -0.0216 |
| RRIRARPPRLPRPRPRPEELPRP | 0.499 |
| RRIRCRPPRLPRPRPRPWMFPRP | -0.453 |
| RRIRGRPPRLPRPRPRPRFPPRP | 0.412 |
| RRIRNRPPRLPRPRPRPDAEPRP | 0.45 |
| RRIRPRPPRLPRPRPRPYYFPRP | -0.427 |

| Sequence | shrunken log2 fold change |
| --- | --- |
| RRIRMRPPRLPRPRPRPDGGPRP | 0.135 |
| RRIRWRPPRLPRPRPRPRLKPRP | 0.689 |
| RRIRDRPPRLPRPRPRPGCLPRP | 0.589 |
| RRIRSRPPRLPRPRPRPDPVPRP | 0.377 |
| RRIRTRPPRLPRPRPRPPHHPRP | -0.149 |
| RRIRNRPPRLPRPRPRPYHDPRP | -0.165 |
| RRIRSRPPRLPRPRPRPGHHPRP | -0.0988 |
| RRIRARPPRLPRPRPRPSHCPRP | -0.101 |
| RRIRNRPPRLPRPRPRPKCSPRP | 0.0607 |
| RRIRLRPPRLPRPRPRPAAMPRP | 0.158 |
| RRIRWRPPRLPRPRPRPPDGPRP | 0.784 |
| RRIRQRPPRLPRPRPRPTTMPRP | -0.11 |
| RRIRDRPPRLPRPRPRPTHGPRP | 0.117 |
| RRIRPRPPRLPRPRPRPGQPPRP | -0.0656 |
| RRIRHRPPRLPRPRPRPVEGPRP | 0.105 |
| RRIRGRPPRLPRPRPRPDDGPRP | -0.0284 |
| RRIRWRPPRLPRPRPRPGMTPRP | 0.167 |
| RRIRHRPPRLPRPRPRPLANPRP | -0.263 |
| RRIRTRPPRLPRPRPRPKLPPRP | 0.214 |
| RRIRPRPPRLPRPRPRPQLIPRP | -0.108 |
| RRIRYRPPRLPRPRPRPEQYPRP | -0.0207 |
| RRIRLRPPRLPRPRPRPYLWPRP | -0.0439 |
| RRIRTRPPRLPRPRPRPVSPPRP | -0.194 |
| RRIRARPPRLPRPRPRPGPCPRP | 0.251 |
| RRIRKRPPRLPRPRPRPNYAPRP | -0.0324 |
